Reference: patent US20220177587A1, “METHODS AND USES OF VARIANT CD80 FUSION PROTEINS AND RELATED CONSTRUCTS” (Alpine Immune Sciences, Inc., priority 2018, published 2022)
Like-named read-outs stand apart in the source and are kept apart here.

What was measured:
PD-L1 (human) [1] = biological target: PD-L1 (human) (UniProt Q9NZQ7); assay: flow cytometry, CHO/huPD-L1 cells; vs WT CD80 ECD-Fc (Abcam)
CD28 (human) [2] = biological target: CD28 (human) (UniProt P10747); assay: flow cytometry, Jurkat/IL2 reporter cells (CD28)
human CTLA-4 (human) [3] = biological target: human CTLA-4 (human) (UniProt P16410); assay: flow cytometry, CHO/huCTLA-4 cells; vs WT CD80 ECD-Fc (Abcam)
human CTLA-4 (human) [4] = biological target: human CTLA-4 (human) (UniProt P16410); assay: flow cytometry, CHO cells expressing huCTLA-4
PD-L1 (human) [5] = biological target: PD-L1 (human) (UniProt Q9NZQ7); assay: flow cytometry, CHO cells expressing huPD-L1
PD-L1 (human) [6] = biological target: PD-L1 (human) (UniProt Q9NZQ7); assay: flow cytometry, CHO/PD-L1 cells; MFI over CD80 WT IgV-Fc
PD-L1 (human) [7] = biological target: PD-L1 (human) (UniProt Q9NZQ7); assay: flow cytometry, CHO cells stably expressing PD-L1
CD28 (human) [8] = biological target: CD28 (human) (UniProt P10747); assay: flow cytometry, Jurkat cells (CD28)
PD-L1 (human) [9] = biological target: PD-L1 (human) (UniProt Q9NZQ7)
CD28 (human) [10] = biological target: CD28 (human) (UniProt P10747)
human CTLA-4 (human) [11] = biological target: human CTLA-4 (human) (UniProt P16410); assay: flow cytometry, CHO cells stably expressing CTLA4
CD28 (human) [12] = biological target: CD28 (human) (UniProt P10747); assay: flow cytometry, Jurkat cells (CD28); MFI over CD80 WT IgV-Fc
human CTLA-4 (human) [13] = biological target: human CTLA-4 (human) (UniProt P16410); assay: flow cytometry, CHO/CTLA4 cells; MFI over CD80 WT IgV-Fc
PD-L1 (human) [14] = biological target: PD-L1 (human) (UniProt Q9NZQ7); remark: listed apart in the source
CD28 (human) [15] = biological target: CD28 (human) (UniProt P10747); remark: listed apart in the source
CD28 (human) [16] = biological target: CD28 (human) (UniProt P10747); assay: flow cytometry, Jurkat cells (CD28); remark: listed apart in the source
PD-L1 (human) [17] = biological target: PD-L1 (human) (UniProt Q9NZQ7); remark: listed apart in the source
CD28 (human) [18] = biological target: CD28 (human) (UniProt P10747); remark: listed apart in the source
human CTLA-4 (human) [19] = biological target: human CTLA-4 (human) (UniProt P16410); assay: flow cytometry, CHO cells stably expressing CTLA4; remark: listed apart in the source
PD-L1 (human) [20] = biological target: PD-L1 (human) (UniProt Q9NZQ7); assay: flow cytometry, CHO cells stably expressing PD-L1; remark: listed apart in the source
PD-L1 (human) [21] = biological target: PD-L1 (human) (UniProt Q9NZQ7); remark: listed apart in the source
CD28 (human) [22] = biological target: CD28 (human) (UniProt P10747); remark: listed apart in the source
PD-L1 (human) [23] = biological target: PD-L1 (human) (UniProt Q9NZQ7); assay: flow cytometry, HEK293 cells transfected with full-length human PD-L1, PE anti-human Fc
PD-L1 (human) [24] = biological target: PD-L1 (human) (UniProt Q9NZQ7); remark: listed apart in the source
CD28 (human) [25] = biological target: CD28 (human) (UniProt P10747); remark: listed apart in the source
PD-L1 (human) [26] = biological target: PD-L1 (human) (UniProt Q9NZQ7); remark: listed apart in the source
CD28 (human) [27] = biological target: CD28 (human) (UniProt P10747); remark: listed apart in the source
CD28 (human) [28] = biological target: CD28 (human) (UniProt P10747); assay: flow cytometry, HEK293 cells transfected with full-length human CD28, PE anti-human Fc
human CTLA-4 (human) [29] = biological target: human CTLA-4 (human) (UniProt P16410); assay: flow cytometry, HEK293 cells transfected with full-length human CTLA-4, PE anti-human Fc
PD-L1 (human) [30] = biological target: PD-L1 (human) (UniProt Q9NZQ7); remark: listed apart in the source
CD28 (human) [31] = biological target: CD28 (human) (UniProt P10747); remark: listed apart in the source
PD-L1 (human) [32] = biological target: PD-L1 (human) (UniProt Q9NZQ7); remark: listed apart in the source
CD28 (human) [33] = biological target: CD28 (human) (UniProt P10747); remark: listed apart in the source
PD-L1 (human) [34] = biological target: PD-L1 (human) (UniProt Q9NZQ7); assay: flow cytometry, MFI on CHO/PD-L1 over MFI on Jurkat (CD28)
PD-L1 (human) [35] = biological target: PD-L1 (human) (UniProt Q9NZQ7); assay: flow cytometry, HEK293 cells transfected with human PD-L1

PD-L1 (human), sequence (Q9NZQ7 19-290): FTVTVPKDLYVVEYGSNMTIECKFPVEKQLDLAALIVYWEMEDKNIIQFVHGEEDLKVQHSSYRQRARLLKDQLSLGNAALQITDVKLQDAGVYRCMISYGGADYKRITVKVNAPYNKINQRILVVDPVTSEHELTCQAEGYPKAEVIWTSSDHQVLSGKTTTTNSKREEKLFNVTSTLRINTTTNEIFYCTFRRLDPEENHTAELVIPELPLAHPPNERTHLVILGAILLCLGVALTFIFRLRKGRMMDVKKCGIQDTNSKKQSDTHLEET
human CTLA-4 (human), sequence (P16410 36-223): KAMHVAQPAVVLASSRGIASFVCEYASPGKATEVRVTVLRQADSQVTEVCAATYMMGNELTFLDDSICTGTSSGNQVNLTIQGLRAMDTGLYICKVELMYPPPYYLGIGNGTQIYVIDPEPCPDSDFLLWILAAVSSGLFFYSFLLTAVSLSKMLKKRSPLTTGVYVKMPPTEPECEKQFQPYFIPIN

Question: How did the Fold change to WT CD80 (PD-L1 (human) [1]) turn out when “variant CD80 IgV-Fc E35D/M47V/N48K/K89N (Fc fusion)” was run?
Answer: 52.1 fold

Question: What about the MFI at 33.3 nM (CD28 (human) [2]) of the same substance?
Answer: 701 MFI

Question: What about the Fold change to WT CD80 (human CTLA-4 (human) [3]) of the same substance?
Answer: 1.1 fold

Question: What about the MFI at 33.3 nM (human CTLA-4 (human) [4]) of the same substance?
Answer: 43800 MFI

Question: And the MFI at 33.3 nM (PD-L1 (human) [5])?
Answer: 6670 MFI

Question: For “variant CD80 IgV-Fc D46V/M47L/L85Q (Fc fusion)”, which Fold change to WT CD80 (PD-L1 (human) [1]) is on record?
Answer: 46.7 fold

Question: What about the MFI at 33.3 nM (CD28 (human) [2]) of the same substance?
Answer: 567 MFI

Question: And the Fold change to WT CD80 (human CTLA-4 (human) [3])?
Answer: 1 fold

Question: What about the MFI at 33.3 nM (human CTLA-4 (human) [4]) of the same substance?
Answer: 40200 MFI

Question: What about the MFI at 33.3 nM (PD-L1 (human) [5]) of the same substance?
Answer: 5980 MFI

Question: What does the source list for “variant CD80 IgV-Fc (inert) H18Y/E35D/M47V/V68M/A71G/D90G (Fc fusion)”?
Answer: Fold change to WT CD80 (PD-L1 (human) [6]): 316 fold; MFI at 33.3 nM (PD-L1 (human) [7]): 52200 MFI; MFI at 33.3 nM (CD28 (human) [8]): 6790 MFI; IL2-luciferase reporter, fold increase in RLU over WT CD80-IgV-Fc at 5.0 nM (PD-L1 (human) [9]): 4.8 fold; IL2-luciferase reporter, fold increase in RLU over WT CD80-IgV-Fc at 5.0 nM (CD28 (human) [10]): 4.8 fold; MFI at 33.3 nM (human CTLA-4 (human) [11]): 17200 MFI; Fold change to WT CD80 (CD28 (human) [12]): 66.6 fold; Fold change to WT CD80 (human CTLA-4 (human) [13]): 12.4 fold

Question: For “variant CD80 IgV-Fc (inert) H18Y/A26Q/E35D/M47T/V68M/A71G/D90G (Fc fusion)”, which Fold change to WT CD80 (PD-L1 (human) [6]) is on record?
Answer: 148 fold

Question: And the MFI at 33.3 nM (PD-L1 (human) [7])?
Answer: 24400 MFI

Question: And the MFI at 33.3 nM (CD28 (human) [8])?
Answer: 6730 MFI

Question: What about the IL2-luciferase reporter, fold increase in RLU over WT CD80-IgV-Fc at 5.0 nM (PD-L1 (human) [9]) of the same substance?
Answer: 5.8 fold

Question: And the IL2-luciferase reporter, fold increase in RLU over WT CD80-IgV-Fc at 5.0 nM (CD28 (human) [10])?
Answer: 5.8 fold

Question: What about the MFI at 33.3 nM (human CTLA-4 (human) [11]) of the same substance?
Answer: 16700 MFI

Question: And the Fold change to WT CD80 (CD28 (human) [12])?
Answer: 66 fold

Question: And the Fold change to WT CD80 (human CTLA-4 (human) [13])?
Answer: 12 fold

Question: With “CD80 V22A/E35D/M47L/A71G IgV-Fc (Fc fusion)” as the substance, how does the IL2-luciferase reporter (RLU), fold increase over WT CD80-IgV-Fc at 5.0 nM (PD-L1 (human) [14]) read?
Answer: 6.5 fold

Question: And the IL2-luciferase reporter (RLU), fold increase over WT CD80-IgV-Fc at 5.0 nM (CD28 (human) [15])?
Answer: 6.5 fold

Question: “CD80 IgV-Fc H18Y/E35D/M47I/V68M/Y87N (Fc fusion)” was tested. Which MFI at 33.3 nM (CD28 (human) [16]) did it give?
Answer: 1430 MFI

Question: What about the RLU at 5.0 nM: Fold Increase over WT CD80-IgV-Fc (PD-L1 (human) [17]) of the same substance?
Answer: 5.5 fold

Question: What about the RLU at 5.0 nM: Fold Increase over WT CD80-IgV-Fc (CD28 (human) [18]) of the same substance?
Answer: 5.5 fold

Question: And the MFI at 33.3 nM (human CTLA-4 (human) [19])?
Answer: 19700 MFI

Question: And the MFI at 33.3 nM (PD-L1 (human) [20])?
Answer: 9300 MFI

Question: How did the IL2-luciferase reporter (RLU), fold increase over WT CD80-IgV-Fc at 5.0 nM (PD-L1 (human) [14]) turn out when “CD80 E35D/M47V/L85M/R94Q IgV-Fc (Fc fusion)” was run?
Answer: 1.2 fold

Question: What about the IL2-luciferase reporter (RLU), fold increase over WT CD80-IgV-Fc at 5.0 nM (CD28 (human) [15]) of the same substance?
Answer: 1.2 fold

Question: WT CD80 IgV-Fc (inert) (Fc fusion) was tested. Which IL-2 release, primary T cells + K562/OKT3/PD-L1, 100 nM (PD-L1 (human) [21]) did it give?
Answer: 52

Question: What about the IL-2 release, primary T cells + K562/OKT3/PD-L1, 100 nM (CD28 (human) [22]) of the same substance?
Answer: 52

Question: And the MFI at 22.2 nM (PD-L1 (human) [23])?
Answer: 1770 MFI

Question: And the Jurkat/IL2 reporter RLU at 50 nM, K562/OKT3/PD-L1 aAPC (PD-L1 (human) [24])?
Answer: 566 RLU

Question: What about the Jurkat/IL2 reporter RLU at 50 nM, K562/OKT3/PD-L1 aAPC (CD28 (human) [25]) of the same substance?
Answer: 566 RLU

Question: And the Jurkat/IL2 reporter RLU at 50 nM, K562/OKT3/PD-L1 aAPC (PD-L1 (human) [26])?
Answer: 206 RLU

Question: And the Jurkat/IL2 reporter RLU at 50 nM, K562/OKT3/PD-L1 aAPC (CD28 (human) [27])?
Answer: 206 RLU

Question: And the MFI at 66.6 nM (CD28 (human) [28])?
Answer: 1620 MFI

Question: And the MFI at 66.6 nM (human CTLA-4 (human) [29])?
Answer: 20700 MFI

Question: What about the Jurkat/IL2 reporter RLU at 50 nM, CHO/OKT3/PD-L1 aAPC (PD-L1 (human) [30]) of the same substance?
Answer: 483 RLU

Question: And the Jurkat/IL2 reporter RLU at 50 nM, CHO/OKT3/PD-L1 aAPC (CD28 (human) [31])?
Answer: 483 RLU

Question: And the Jurkat/IL2 reporter RLU at 50 nM, CHO/OKT3 aAPC without PD-L1 (CD28 (human) [31])?
Answer: 479 RLU

Question: Which IL2-luciferase reporter, fold increase in RLU over WT CD80-IgV-Fc at 5.0 nM (PD-L1 (human) [32]) does the source give for “CD80 E35D/D46V/M47L/V68M/L85Q/E88D IgV-Fc, delta linker (Fc fusion)” here?
Answer: 2.77 fold

Question: What about the IL2-luciferase reporter, fold increase in RLU over WT CD80-IgV-Fc at 5.0 nM (CD28 (human) [33]) of the same substance?
Answer: 2.77 fold

Question: How did the Fold change to WT CD80 (CD28 (human) [16]) turn out when “CD80 IgV-Fc H18Y/E35D/M47L/V68M/A71G/L85M (Fc fusion)” was run?
Answer: 69.1 fold

Question: And the MFI at 33.3 nM (CD28 (human) [16])?
Answer: 2850 MFI

Question: What about the RLU at 5.0 nM: Fold Increase over WT CD80-IgV-Fc (PD-L1 (human) [17]) of the same substance?
Answer: 5.5 fold

Question: What about the RLU at 5.0 nM: Fold Increase over WT CD80-IgV-Fc (CD28 (human) [18]) of the same substance?
Answer: 5.5 fold

Question: What about the Ratio of PDL1:CD28 (PD-L1 (human) [34]) of the same substance?
Answer: 3.5

Question: And the Fold change to WT CD80 (human CTLA-4 (human) [19])?
Answer: 19.8 fold

Question: And the MFI at 33.3 nM (human CTLA-4 (human) [19])?
Answer: 20700 MFI

Question: What about the Fold change to WT CD80 (PD-L1 (human) [20]) of the same substance?
Answer: 140 fold

Question: What about the MFI at 33.3 nM (PD-L1 (human) [20]) of the same substance?
Answer: 9890 MFI

Question: “variant CD80 IgV-Fc S44P/A71D (Fc fusion)” was tested. Which MFI at 22.2 nM (PD-L1 (human) [35]) did it give?
Answer: 6310
